In patent US20250154198A1, “PEPTIDE INHIBITORS OF INTERLEUKIN-23 RECEPTOR” (Zealand Pharma A/S, priority 2021, published 2025):
*1 amine or outer side, *2 acyl side, *3 side chain or, on linkers, in order; H or OH if unused. Bridges are numbered along the chain shown (N, C = ends). Where no end group is shown, it is not given here. [ ]: non-standard residue; d: D form. 1,3‑dibromopropan‑2‑one = linker (CAS 816-39-7) joining two Cys as 1,3-dithio-propan-2-one bridge -SCH2C(=O)CH2S-; 4‑(2-Aminoethyl)benzoyl = O=C(c1ccc(CCN[*:1])cc1)[*:2]; Trp(7-Me) = Cc1cccc2c(C[C@H](N)C(=O)O)c[nH]c12; Bip = N[C@@H](Cc1ccc(-c2ccccc2)cc1)C(=O)O; 2Nal = N[C@@H](Cc1ccc2ccccc2c1)C(=O)O; AEF = NCCOc1ccc(C[C@H](N)C(=O)O)cc1; αMeR = C[C@](N)(CCCNC(=N)N)C(=O)O; 4Pal = N[C@@H](Cc1ccncc1)C(=O)O; αMeL = CC(C)C[C@](C)(N)C(=O)O; CH2COCH2 = O=C(C[*:1])C[*:2]; 3Amb = NCc1cccc(C(=O)O)c1; Orn = NCCC[C@H](N)C(=O)O; Dab = NCC[C@H](N)C(=O)O

B1: Compound 56 (peptide)
peptide: Ac-DEQCWQC[2Nal]W[αMeL]KR-NH2
modifications: lactam 2-11; linker 4-7 via CH2COCH2
SMILES: CC(=O)N[C@@H](CC(=O)O)C(=O)N[C@H]1CCC(=O)NCCCC[C@@H](C(=O)N[C@@H](CCCNC(=N)N)C(N)=O)NC(=O)[C@](C)(CC(C)C)NC(=O)[C@H](Cc2c[nH]c3ccccc23)NC(=O)[C@H](Cc2ccc3ccccc3c2)NC(=O)[C@@H]2CSCC(=O)CSC[C@H](NC(=O)[C@H](CCC(N)=O)NC1=O)C(=O)N[C@@H](Cc1c[nH]c3ccccc13)C(=O)N[C@@H](CCC(N)=O)C(=O)N2
B2: Compound 70 (peptide)
peptide: [3Amb]SC[Trp(7-Me)]QC[AEF][2Nal][αMeL]ER-NH2
modifications: lactam (positions not given here); linker 3-6 via CH2COCH2; not fully specified (bridges)
B3: Compound 69 (peptide)
peptide: [3Amb]SEWQ[Orn][AEF][2Nal][αMeL]ER-NH2
modifications: lactam (positions not given here); lactam 3-6; not fully specified (bridges); printed as [(3-Aminomethyl)benzoyl](1c)*SE(2c)WQ[Orn](2c)[Y(2-aminoethoxy)][2-Nal][2-Me-Leu]E(1c)R-[NH2]
B4: Compound 68 (peptide)
peptide: [3Amb]S[Orn]WQE[AEF][2Nal][αMeL]ER-NH2
modifications: lactam (positions not given here); lactam 3-6; not fully specified (bridges); printed as [(3-Aminomethyl)benzoyl](1c)*S[Orn](2c)WQE(2c)[Y(2-aminoethoxy)][2-Nal][2-Me-Leu]E(1c)R-[NH2]
B5: Compound 5 (peptide)
peptide: H-DCSEWQKWWLCR-NH2
modifications: linker 2-11 via 1,3‑dibromopropan‑2‑one; lactam 4-7
B6: Compound 79 (peptide)
peptide: [3Amb]SCWQC[AEF][2Nal][αMeL]ER[4Pal]-NH2
modifications: lactam (positions not given here); linker 3-6 via CH2COCH2; not fully specified (bridges); printed as [(3-Aminomethyl)benzoyl](1c)*SC(2a)WQC(2a)[Y(2-aminoethoxy)][2-Nal][2-Me-Leu]E(1c)R[3-(4-Pyridyl)-Ala]-[NH2]
B7: Compound 39 (peptide)
peptide: [3Amb]SCWQC[AEF][2Nal]LER-NH2
modifications: lactam N-10; linker 3-6 via CH2COCH2
SMILES: CC(C)C[C@@H]1NC(=O)[C@H](Cc2ccc3ccccc3c2)NC(=O)[C@H](Cc2ccc(OCCN)cc2)NC(=O)[C@@H]2CSCC(=O)CSC[C@H](NC(=O)[C@H](CO)NC(=O)c3cccc(c3)CNC(=O)CC[C@@H](C(=O)N[C@@H](CCCNC(=N)N)C(N)=O)NC1=O)C(=O)N[C@@H](Cc1c[nH]c3ccccc13)C(=O)N[C@@H](CCC(N)=O)C(=O)N2
B8: Compound 36 (peptide)
peptide: XSCWQCWXLER
HELM: PEPTIDE1{[bAla].S.C.W.Q.C.W.[O=C([C@H](Cc1ccc2ccccc2c1)N[*:1])[*:2]].L.E.R.[am]}|CHEM1{[O=C(C[*:1])C[*:2]]}$PEPTIDE1,PEPTIDE1,1:R1-10:R3|PEPTIDE1,CHEM1,3:R3-1:R1|PEPTIDE1,CHEM1,6:R3-1:R2$$$V2.0
SMILES: CC(C)C[C@@H]1NC(=O)[C@H](Cc2ccc3ccccc3c2)NC(=O)[C@H](Cc2c[nH]c3ccccc23)NC(=O)[C@@H]2CSCC(=O)CSC[C@H](NC(=O)[C@H](CO)NC(=O)CCNC(=O)CC[C@@H](C(=O)N[C@@H](CCCNC(=N)N)C(N)=O)NC1=O)C(=O)N[C@@H](Cc1c[nH]c3ccccc13)C(=O)N[C@@H](CCC(N)=O)C(=O)N2
B9: Compound 50 (peptide)
peptide: [4‑(2-Aminoethyl)benzoyl]SCWQC[AEF][2Nal][αMeL]ER-NH2
modifications: lactam N-10; linker 3-6 via CH2COCH2
SMILES: CC(C)C[C@]1(C)NC(=O)[C@H](Cc2ccc3ccccc3c2)NC(=O)[C@H](Cc2ccc(OCCN)cc2)NC(=O)[C@@H]2CSCC(=O)CSC[C@H](NC(=O)[C@H](CO)NC(=O)c3ccc(cc3)CCNC(=O)CC[C@@H](C(=O)N[C@@H](CCCNC(=N)N)C(N)=O)NC1=O)C(=O)N[C@@H](Cc1c[nH]c3ccccc13)C(=O)N[C@@H](CCC(N)=O)C(=O)N2
B10: Compound 51 (peptide)
peptide: [3‑(4-Aminophenyl)propanoyl]SCWQC[AEF][2Nal][αMeL]ER-NH2
modifications: lactam N-10; linker 3-6 via CH2COCH2
B11: Compound 67 (peptide)
peptide: [3Amb]SEWQ[Dab][AEF][2Nal][αMeL]ER-NH2
modifications: lactam (positions not given here); lactam 3-6; not fully specified (bridges)
B12: Compound 2 (peptide)
peptide: H-LCSCWQCWWLCR-NH2
modifications: linker 2-11, 4-7 via CH2COCH2
B13: Compound 62 (peptide)
peptide: Ac-DCQCWQC[2Nal]W[αMeL]CR-NH2
modifications: linker 2-11, 4-7 via CH2COCH2
B14: Compound 13 (peptide)
peptide: Ac-DESCAQCWWLKR-NH2
modifications: lactam 2-11; linker 4-7 via 1,3‑dibromopropan‑2‑one
B15: Compound 14 (peptide)
peptide: Ac-DESCWQCAWLKR-NH2
modifications: lactam 2-11; linker 4-7 via 1,3‑dibromopropan‑2‑one
B16: Compound 15 (peptide)
peptide: Ac-DESCWQCWALKR-NH2
modifications: lactam 2-11; linker 4-7 via 1,3‑dibromopropan‑2‑one
B17: Compound 38 (peptide)
peptide: [3Amb]SCWQC[AEF][2Nal][αMeL]ER-NH2
modifications: lactam N-10; linker 3-6 via CH2COCH2
SMILES: CC(C)C[C@]1(C)NC(=O)[C@H](Cc2ccc3ccccc3c2)NC(=O)[C@H](Cc2ccc(OCCN)cc2)NC(=O)[C@@H]2CSCC(=O)CSC[C@H](NC(=O)[C@H](CO)NC(=O)c3cccc(c3)CNC(=O)CC[C@@H](C(=O)N[C@@H](CCCNC(=N)N)C(N)=O)NC1=O)C(=O)N[C@@H](Cc1c[nH]c3ccccc13)C(=O)N[C@@H](CCC(N)=O)C(=O)N2
B18: Compound 44 (peptide)
peptide: [3Amb]SCWQC[AEF][2Nal][αMeL]ES-NH2
modifications: lactam N-10; linker 3-6 via CH2COCH2
SMILES: CC(C)C[C@]1(C)NC(=O)[C@H](Cc2ccc3ccccc3c2)NC(=O)[C@H](Cc2ccc(OCCN)cc2)NC(=O)[C@@H]2CSCC(=O)CSC[C@H](NC(=O)[C@H](CO)NC(=O)c3cccc(c3)CNC(=O)CC[C@@H](C(=O)N[C@@H](CO)C(N)=O)NC1=O)C(=O)N[C@@H](Cc1c[nH]c3ccccc13)C(=O)N[C@@H](CCC(N)=O)C(=O)N2
B19: Compound 42 (peptide)
peptide: [3Amb]SCWQC[AEF][2Nal][αMeL]E[αMeR]-NH2
modifications: lactam N-10; linker 3-6 via CH2COCH2
SMILES: CC(C)C[C@]1(C)NC(=O)[C@H](Cc2ccc3ccccc3c2)NC(=O)[C@H](Cc2ccc(OCCN)cc2)NC(=O)[C@@H]2CSCC(=O)CSC[C@H](NC(=O)[C@H](CO)NC(=O)c3cccc(c3)CNC(=O)CC[C@@H](C(=O)N[C@@](C)(CCCNC(=N)N)C(N)=O)NC1=O)C(=O)N[C@@H](Cc1c[nH]c3ccccc13)C(=O)N[C@@H](CCC(N)=O)C(=O)N2
B20: Compound 63 (peptide)
peptide: Ac-DCQCWQCYW[αMeL]CR-NH2
modifications: linker 2-11, 4-7 via CH2COCH2
B21: Compound 49 (peptide)
peptide: [(4-Aminomethyl)benzoyl]SCWQC[AEF][2Nal][αMeL]ER-NH2
modifications: lactam N-10; linker 3-6 via CH2COCH2
B22: Compound 26 (peptide)
peptide: Ac-KSC[Bip]QCW[2Nal]LER-NH2
modifications: lactam 1-10; linker 3-6 via CH2COCH2
SMILES: CC(=O)N[C@H]1CCCCNC(=O)CC[C@@H](C(=O)N[C@@H](CCCNC(=N)N)C(N)=O)NC(=O)[C@H](CC(C)C)NC(=O)[C@H](Cc2ccc3ccccc3c2)NC(=O)[C@H](Cc2c[nH]c3ccccc23)NC(=O)[C@@H]2CSCC(=O)CSC[C@H](NC(=O)[C@H](CO)NC1=O)C(=O)N[C@@H](Cc1ccc(-c3ccccc3)cc1)C(=O)N[C@@H](CCC(N)=O)C(=O)N2
B23: Compound 6 (peptide)
peptide: cyclo(DSCWQCWWLR)
modifications: linker 3-6 via 1,3‑dibromopropan‑2‑one

biological target: T1, human IL-23R endogenously expressed on DB cells (CRL-2289) (human, UniProt Q5VWK5 24-629); experiment: cell-based or functional assay
T1 sequence (looked up): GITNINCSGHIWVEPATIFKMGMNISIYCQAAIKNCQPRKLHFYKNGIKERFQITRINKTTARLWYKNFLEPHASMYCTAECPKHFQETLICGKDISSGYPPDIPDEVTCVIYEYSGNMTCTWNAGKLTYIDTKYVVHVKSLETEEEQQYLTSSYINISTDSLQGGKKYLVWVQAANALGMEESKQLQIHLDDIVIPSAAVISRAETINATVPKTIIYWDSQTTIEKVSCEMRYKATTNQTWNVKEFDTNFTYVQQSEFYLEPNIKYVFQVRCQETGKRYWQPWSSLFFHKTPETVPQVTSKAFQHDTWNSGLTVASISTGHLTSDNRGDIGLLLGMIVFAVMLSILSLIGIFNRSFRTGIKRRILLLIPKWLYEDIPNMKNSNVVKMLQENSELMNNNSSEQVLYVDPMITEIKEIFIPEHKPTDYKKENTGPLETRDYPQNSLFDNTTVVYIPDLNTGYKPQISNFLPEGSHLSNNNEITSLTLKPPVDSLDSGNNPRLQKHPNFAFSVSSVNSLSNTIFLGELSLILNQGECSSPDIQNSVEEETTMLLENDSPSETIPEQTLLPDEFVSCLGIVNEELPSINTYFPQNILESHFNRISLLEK

Binder | IC50 (pSTAT3)
B1 | > 1 µM
B2 | 8.43 nM
B3 | 41.1 nM
B4 | 63.9 nM
B5 | > 1 µM
B6 | 21.3 nM
B7 | 19.6 nM
B8 | > 1 µM
B9 | 51.1 nM
B10 | 68.1 nM
B11 | 35.3 nM
B12 | 755 nM
B13 | > 1 µM
B14 | > 1 µM
B15 | > 1 µM
B16 | > 1 µM
B17 | 19.3 nM
B18 | 82.3 nM
B19 | 24.7 nM
B20 | > 1 µM
B21 | 20.3 nM
B22 | > 1 µM
B23 | > 1 µM
